Source: US20230002480A1

Tests used:
Assay in all cases: cell-based or functional assay
[1] = target: HIV-1 Env of pseudovirus 0815.v3.c3 (HIV-1)
[2] = target: HIV-1 Env of pseudovirus 1056_10_TA11_1826 (HIV-1)
[3] = target: HIV-1 Env of pseudovirus 191084 B7-19 (HIV-1)
[4] = target: HIV-1 Env of pseudovirus 246F C1G (HIV-1)
[5] = target: HIV-1 Env of pseudovirus 3301.v1.c24 (HIV-1)
[6] = target: HIV-1 Env of pseudovirus 6540.v4.c1 (HIV-1)
[7] = target: HIV-1 Env of pseudovirus 6811.v7.c18 (HIV-1)
[8] = target: HIV-1 Env of pseudovirus 7030102001E5(Rev-) (HIV-1)
[9] = target: HIV-1 Env of pseudovirus 9004SS_A3_4 (HIV-1)
[10] = target: HIV-1 Env of pseudovirus 928-28 (HIV-1)
[11] = target: HIV-1 Env of pseudovirus AC10.0.29 (HIV-1)
[12] = target: HIV-1 Env of pseudovirus CAP210.2.00.E8 (HIV-1)
[13] = target: HIV-1 Env of pseudovirus CNE20 (HIV-1)
[14] = target: HIV-1 Env of pseudovirus CNE21 (HIV-1)
[15] = target: HIV-1 Env of pseudovirus CNE5 (HIV-1)
[16] = target: HIV-1 Env of pseudovirus CNE52 (HIV-1)
[17] = target: HIV-1 Env of pseudovirus Ce0393_C3 (HIV-1)
[18] = target: HIV-1 Env of pseudovirus Ce0682_E4 (HIV-1)
[19] = target: HIV-1 Env of pseudovirus Ce2060_G9 (HIV-1)
[20] = target: HIV-1 Env of pseudovirus Ce704809221_1B3 (HIV-1)
[21] = target: HIV-1 Env of pseudovirus Du172.17 (HIV-1)
[22] = target: HIV-1 Env of pseudovirus Q461.e2 (HIV-1)
[23] = target: HIV-1 Env of pseudovirus T250-4 (HIV-1)
[24] = target: HIV-1 Env of pseudovirus T251-18 (HIV-1)
[25] = target: HIV-1 Env of pseudovirus T255-34 (HIV-1)
[26] = target: HIV-1 Env of pseudovirus T257-31 (HIV-1)
[27] = target: HIV-1 Env of pseudovirus THRO4156.18 (HIV-1)
[28] = target: HIV-1 Env of pseudovirus TRJO4551.58 (HIV-1)
[29] = target: HIV-1 Env of pseudovirus WITO4160.33 (HIV-1)
[30] = target: HIV-1 Env of pseudovirus X1193_c1 (HIV-1)
[31] = target: HIV-1 Env of pseudovirus X2088_c9 (HIV-1)
[32] = target: HIV-1 Env of pseudovirus X2131_C1_B5 (HIV-1)
[33] = target: HIV-1 Env of pseudovirus ZM135M.PL10a (HIV-1)
[34] = target: HIV-1 Env of pseudovirus ZM197M.PB7 (HIV-1)
[35] = target: HIV-1 Env of pseudovirus ZM214M.PL15 (HIV-1)
[36] = target: HIV-1 Env of pseudovirus ZM249M.PL1 (HIV-1)

Substance: PGT151 (antibody)
- IC50, titer in TZM.bl cells [1]: > 50 µg/mL
- IC80, titer in TZM.bl cells [1]: > 50 µg/mL
- IC50 [2]: 0.008 µg/mL
- IC80 [2]: 0.048 µg/mL
- IC50 [3]: 0.004 µg/mL
- IC80 [3]: 0.016 µg/mL
- IC50 [4]: > 50 µg/mL
- IC80 [4]: > 50 µg/mL
- IC50, titer in TZM.bl cells [5]: 0.002 µg/mL
- IC80, titer in TZM.bl cells [5]: 0.019 µg/mL
- IC50, titer in TZM.bl cells [6]: 0.006 µg/mL
- IC80, titer in TZM.bl cells [6]: 0.03 µg/mL
- IC50, titer in TZM.bl cells [7]: > 50 µg/mL
- IC80, titer in TZM.bl cells [7]: > 50 µg/mL
- IC50 [8]: 0.001 µg/mL
- IC80 [8]: 0.011 µg/mL
- IC50 [9]: 0.003 µg/mL
- IC80 [9]: 0.015 µg/mL
- IC50 [10]: > 50 µg/mL
- IC80 [10]: > 50 µg/mL
- IC50 [11]: 0.007 µg/mL
- IC80 [11]: 0.023 µg/mL
- IC50 [12]: 0.01 µg/mL
- IC80 [12]: 0.208 µg/mL
- IC50 [13]: > 50 µg/mL
- IC80 [13]: > 50 µg/mL
- IC50 [14]: 0.004 µg/mL
- IC80 [14]: 0.012 µg/mL
- IC50, titer in TZM.bl cells [15]: > 50 µg/mL
- IC80, titer in TZM.bl cells [15]: > 50 µg/mL
- IC50 [16]: 0.004 µg/mL
- IC80 [16]: 0.017 µg/mL
- IC50 [17]: > 50 µg/mL
- IC80 [17]: > 50 µg/mL
- IC50 [18]: > 50 µg/mL
- IC80 [18]: > 50 µg/mL
- IC50 [19]: 0.135 µg/mL
- IC80 [19]: > 50 µg/mL
- IC50 [20]: > 50 µg/mL
- IC80 [20]: > 50 µg/mL
- IC50 [21]: 0.003 µg/mL
- IC80 [21]: 0.013 µg/mL
- IC50 [22]: 12.6 µg/mL
- IC80 [22]: > 50 µg/mL
- IC50 [23]: 0.005 µg/mL
- IC80 [23]: 0.014 µg/mL
- IC50, titer in TZM.bl cells [24]: 0.327 µg/mL
- IC80, titer in TZM.bl cells [24]: > 50 µg/mL
- IC50, titer in TZM.bl cells [25]: 0.002 µg/mL
- IC80, titer in TZM.bl cells [25]: 0.01 µg/mL
- IC50 [26]: 0.003 µg/mL
- IC80 [26]: 0.01 µg/mL
- IC50 [27]: > 50 µg/mL
- IC80 [27]: > 50 µg/mL
- IC50 [28]: 0.496 µg/mL
- IC80 [28]: 4.22 µg/mL
- IC50 [29]: 0.002 µg/mL
- IC80 [29]: 0.021 µg/mL
- IC50, titer in TZM.bl cells [30]: 0.004 µg/mL
- IC80, titer in TZM.bl cells [30]: 0.027 µg/mL
- IC50, titer in TZM.bl cells [31]: > 50 µg/mL
- IC80, titer in TZM.bl cells [31]: > 50 µg/mL
- IC50, titer in TZM.bl cells [32]: 0.007 µg/mL
- IC80, titer in TZM.bl cells [32]: 0.036 µg/mL
- IC50 [33]: > 50 µg/mL
- IC80 [33]: > 50 µg/mL
- IC50 [34]: 0.003 µg/mL
- IC80 [34]: 0.033 µg/mL
- IC50 [35]: 0.008 µg/mL
- IC80 [35]: 0.045 µg/mL
- IC50 [36]: 0.004 µg/mL
- IC80 [36]: 0.015 µg/mL
